Experiment: yeast display, Sf9 membrane polyspecificity reagent, FACS + sequencing; frameworks hold sequencing errors
How it was run: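 Synthetic nanobody libraries on Saccharomyces cerevisiae BJ5465 were galactose-induced for 36–48 hours, stained 1 hour at 4 °C with 10% biotinylated, detergent-solubilized Sf9 membrane reagent and enriched on streptavidin microbeads. FACS then separated cells into low and high (top ~1%) gates by anti-HA (expression) and streptavidin (reagent binding) fluorescence. Genes were colony-PCR amplified, MiSeq 2 × 250 sequenced and CDR-length filtered. A clone's polyreactivity label is that of its gate of origin.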

Sequence: QVQLVESGVGLVQAGGSLRLSCAASGRIFHYNAMGWYRQAPGKERELVAAISTGGSTNYADSVKGRFTISRDNAKNTVYLQMNSLKPEDTAVYYCAADRTLSYEYWGQGTQVTVSS
- polyreactivity (PSR sort gate): low polyreactivity

Sequence: QVQLVESGVGLVQAGGSLRLSCAASGRIFTLNAMGWYRQAPGKERELFAGISRTGGSTYYADSVKVRFPISRDNAKNTVYLQMNSLKPEDTAVYYCAAAGFRRQPGAGAYYYWGQGTQVTVSS
- polyreactivity (PSR sort gate): high polyreactivity

Sequence: QVQLVESGVGLVQAGGSLRLSCAASGRNFAYYAMGWYRQAPGKERELVAAISSGGTTNYADSVKGRFTISRDNAKNTVYLQMNSLKPDDTAVYDCNADGWRRSRQYYYWGQGTQVTVSS
- polyreactivity (PSR sort gate): low polyreactivity

Sequence: QVQLVESGVGLVQAGGSLRLSCAASGRTFFNYVMGWYRPAPGKERELVAAISRSGGSTYYADSVKGRFTLSRDNAKNTVYLQMNSLKPEDTAVYYCAADKYYEYYWGQATQVTVSS
- polyreactivity (PSR sort gate): high polyreactivity

Sequence: QVQLVESGVGLVQAGGSLRLSCAASGRTFGYYAMGWYRLAPGKERELVAAISSGGSTNYADSVKGRFTISRDNAKNTVYLQMNSLKPEDTAVYYCAAKAWYYPGRRNYYQYYYWGQGTQVTVSS
- polyreactivity (PSR sort gate): high polyreactivity

Sequence: QVQLVESGVGLVQAGGSLRLSCAASGRTFPPYAMGWYRQAPGKERELVAAISSDGSTYADSVKGRFTISRDNAKNTVYLQMNSLKPEDTAVYYCAVDYTYSYRKHFGHILYSWGQGTQVTVSS
- polyreactivity (PSR sort gate): low polyreactivity

Sequence: QVQLVESGVGLVQAGGSLRLSCAASGRTFPSYNMGWYRQAPGKERELVAAITWTGGSTYYSDSVKGRFTISRDNAKNTVYLQMNSLKPEDTAVYYCATEEVYGQGNYWGQGTQVTVSS
- polyreactivity (PSR sort gate): low polyreactivity

Sequence: QVQLVESGVGLVQAGGSLRLSCAASGRTFRANAMGWYRQAPGKERELVAAITWDGGSTYYADSVKGRFTISRDNAKNTVYLLMYSLKPEDTAVYYCNTYPYLWGQGTQVTLSS
- polyreactivity (PSR sort gate): low polyreactivity

Sequence: QVQLVESGVGLVQAGGSLRLSCAASGRTFVYAMGWYRQAPGKERELVAAISYNGGSTYYADSVKGRFTISRDNAKNTVYLQMNSLKPEDTAVYYCAADISVGRYGDMDYWGQGTQVTVSS
- polyreactivity (PSR sort gate): low polyreactivity

Sequence: QVQLVESGVGLVQAGGSLRLSCAASGSIFDANTMGWYRQAPGKERELVAAITGSGASTYYADSVKGRFTISRDNAKNTVYLQMNSLKPEDSAVYYCAARRYTSYYKDGWYAYYYWGQGTQVTVSS
- polyreactivity (PSR sort gate): high polyreactivity

Sequence: QVQLVESGVGLVQAGGSLRLSCAASGSIFGRNAMGWYRQAPGKERELVARISYIGGSTYYADSVKGRFTISRDNEKNTVYLQMNSLKPEDTSVYYCAKRYGFGYKRMDYWGQGTQVTVSS
- polyreactivity (PSR sort gate): low polyreactivity

Sequence: QVQLVESGVGLVQAGGSLRLSCAASGSIFIRNAMGWYRQAPGKERELVAAISGSGSSTYYADSVKGRFTISRDTAKNTVYLQMNILKPEDTAVYYCNTDRTHSYQYGGYDYWGQGTQVTVSS
- polyreactivity (PSR sort gate): low polyreactivity

Sequence: QVQLVESGVGLVQAGGSLRLSCAASGSIFLTYDMGWYRPAPGKERELVAAITGSGDSTYYADSVKGRFTISRDNAKNTVYLQMNSLKPEDTAVYYCNTLVGVDFWLVDYWGQGTQVTLSS
- polyreactivity (PSR sort gate): low polyreactivity

Sequence: QVQLVESGVGLVQAGGSLRLSCAASGSIFQSYDMGWYRQAPGKERELVAAISWSGSTTYYADSVKGRFTISRDNAKNTVYLQMNSLKPEDTAVYYCAVDSNPPDWWAVIYGFWGQGTQVTVSS
- polyreactivity (PSR sort gate): low polyreactivity

Sequence: QVQLVESGVGLVQAGGSLRLSCAASGSIFVNYAMGWYRQAPWKERELVAAITLRGGSTFYADSVKGRFTISRDNAKNTVYLQMHSLKPEDTAVYYCAASSLRYRAYKSLFDFWGQGTQVTVSS
- polyreactivity (PSR sort gate): low polyreactivity

Sequence: QVQLVESGVGLVQAGGSLRLSCAASGSSFTSNAMGSYRQAPGKEREFVAAISVGGGITYYADSVKGRFTISRDNAKNTVYLQMYSLKPEDTAVYYCAADGEYPHSEDFEYWGQGTQVTVSS
- polyreactivity (PSR sort gate): low polyreactivity

Sequence: QVQLVESGVGLVQAGGSLRLSCAASGSTFFIYPMGLYRQAPGKERELVAAIRSGGTYYADSVKGRFTISRDNAKNTVYLQMNSLNPEDTAVYYCAARTRGFRYYYWGQGSQVTVSS
- polyreactivity (PSR sort gate): high polyreactivity

Sequence: QVQLVESGVGLVQAGGSLRLSCAASGSTFGGYAMVWYRQAPGKESELVAAIYSSGGNTNYADSVKGRFTISRDNAKNTVYLQMNSLIPEDTAVYYCARDTQLPHFYGRVSEYDYWGQGTQVTVSS
- polyreactivity (PSR sort gate): low polyreactivity

Sequence: QVQLVESGVGLVQAGGSLRLSCAASGSTFYPNAMGWYRQAPRKERELVAAISRGTRTKYADSVKGRFTISRDNAKNTVYLQMNSLKPEDTAVYYCAADTGTGLDWGQGTQVTVSS
- polyreactivity (PSR sort gate): high polyreactivity

Sequence: QVQLVESGVGLVQAGGSLRLSCAASGSTFYSNAMGWNRQAPGKERELVASISWSSGSTYYADSVKGRFTISRDNAKNTVYLQMNSLKPEDTAVYYCATDAGGPYRFGYWGQGTQVTVSS
- polyreactivity (PSR sort gate): low polyreactivity

Sequence: QVQLVESGVGLVQAGGSLRLSCAASGSTFYYYAMGWYRQAPGKERELVAAISWSGASTFYADSVKGRFTISRDNAKITVYLQMNSLKPEDTAVFYCAARYYGQPQYQPLYYWGQGTQVTVSS
- polyreactivity (PSR sort gate): high polyreactivity

Sequence: QVQLVESGVGLVQAGGSLRLSCAASGSTIQYYAQGRYRQAPGKEREFVAAISISGGSTYYADSLKGRFTISRDNAKNTVYLQMNSLIPEDSEVYYCAARKKEYKPGKYWGQGTQVTVSS
- polyreactivity (PSR sort gate): low polyreactivity

Sequence: QVQLVESGVGLVQAGGSLRLSCAASGYIFYQYAMGWYRQAPGKERELVSTISWRGGSTYYADSVKGRFTISRDNAKNTVYLQMNCLKPEDTAVYYCAARKRPYTVINGMDYWGQGTQVTVSS
- polyreactivity (PSR sort gate): low polyreactivity

Sequence: QVQLVESGVGLVQAGGSLRLSCAASGYTFQINAMGWYRQAPGKERELVAAITSGGRTYYADSVKGRFTISRDNAKNTVYLQMNSLKAEDTAVYYCNKVPRRGVDYWGQGTQVTVSW
- polyreactivity (PSR sort gate): low polyreactivity

Sequence: QVQLVESGVGLVQAGGSLRLSCAPSGSTFWVNGMGWYRPAPGKERELVASISQSGDNTYYADSVKGRFTISRDNAKNTVYLQMNSLKPEDTAVSYCATRYQYGGFLYYRFDDWGQGTQVTVSS
- polyreactivity (PSR sort gate): high polyreactivity

Sequence: QVQLVESGVGLVQAGGSLRLSCASSGLTLNQYAIGWYRQAPGKERELVAAITRGGGSTYYADSVKGRFTISRDNAKYTVYLQMNSLKPEDTAVYYCATDNWWPTYHYQGGYYWGQGTQVTVSS
- polyreactivity (PSR sort gate): low polyreactivity

Sequence: QVQLVESGVGLVQAGGSLRLSCDATGSILGINVMGWYRQAPGKEREVVAAISRRGGSTYYADSVKGRFTISRDNSKNTVYLQMNSLKPEDTAVYYCAAGTSYYYGSYRFYYWGQGTQVTVSS
- polyreactivity (PSR sort gate): high polyreactivity

Sequence: QVQLVESGVGLVQAGGSLRLSSAASGFTFIYYAMGWYRQAPGKERELVAAITSGGNTYYADSVKGRFTISRDNAKNTDYLQMNSLTPEDPAVYYCNKVPHREWVGGYDYWGQGTQVTVSS
- polyreactivity (PSR sort gate): low polyreactivity

Sequence: QVQLVESGVGLVQAGGSLRLSSAASGRILRQYAMGWYRQAPGKERELVAAITSSGGSTYYADSVKGRFTISRDNAKNTVYLQMNSLKPEDTAVYYCNARLRGAKYDYWGQGTQVTVSS
- polyreactivity (PSR sort gate): high polyreactivity

Sequence: QVQLVESGVGLVQAGGSLRLSSAASGRTFPSNNMGWYRQAPGKERELVAAISKNGGSTYYADSVKGRFTISRDNAMNTVYLQMNRLKPEDTAVYYWAATGVSSKRLASQRKLDYWGQGSQVTVSS
- polyreactivity (PSR sort gate): high polyreactivity

Sequence: QVQLVESGVGLVQAGGSLRLSSDASGSIFGTYAMGWYRQAPGKERELVAAITGNGGRTYYADSVKGRFTISRDNAKNTVYLQMHSLKAEDTAVYSCAISSSRGGFYYWGQGNQVTVSS
- polyreactivity (PSR sort gate): high polyreactivity

Sequence: QVQLVESGVGLVQAGGSLSLSCAASGRLFNYYAMGWYRQAPGKERELVAAISSSGGRTYYADSVKGRFTISRDNAKNTVYLQMNCLKPEDTAVFYCAAYDSLRYSTYDYWGQGTQVTVSS
- polyreactivity (PSR sort gate): high polyreactivity

Sequence: QVQLVESGVGLVQAGGTLRISCAASGRISRGYAMGWYRQAPGKERELVAAISRRGDSTYYADSVKGRFTISRDNAKYTVYLQMNSLKPEDTAVYYCAARNGGRYAAGLDYWGQGTHVTVSS
- polyreactivity (PSR sort gate): high polyreactivity

Sequence: QVQLVESGVGLVQAGGTLRLSCAPSGSTFSVYAMGWYRQPPGKERELVADITRGGSTYADSVKGRFTISRDNAKITVYLQMNSLKPEDTAVYYCAGEEVTPYPLYWSTREYDYWGQGTQVTVSS
- polyreactivity (PSR sort gate): low polyreactivity

Sequence: QVQLVESGVGLVQAGVSLRISCAASGSIFDTYAMGWYRQAPGKERELVAAIRWTGGSTYYADSVKGRFTISRDNAKNTVYLQMNSLKREDTAVYYCATPSYGRPGFGYWGQGTQVTVSS
- polyreactivity (PSR sort gate): low polyreactivity

Sequence: QVQLVESGVGLVQARGSLPLSCAASGSIFYYYVMGWYRQAPGKERELVAAIRSSGTSTYYADSVKGRFTISRDNAKNTVYLQRNSLKPEDTAVYYCNRARSSSRYDYWGQGTQVTVSS
- polyreactivity (PSR sort gate): low polyreactivity

Sequence: QVQLVESGVGLVQARGSLRISCAASGFIFDLYAMGWYIQAHGKERELVAAITTSGGTTYYADSVKGRFTISRDNAKNTVYLQMNSLKPEDTAVYYCNALRRYVSVRPTKSDYWGQGTQVTVSS
- polyreactivity (PSR sort gate): high polyreactivity

Sequence: QVQLVESGVGLVQARGSLRLSCAASGVISSINAVGWNRLAAAKEWELVAGIRARGTSPYYADSVKGRFTISRDNAKNTVYLQMNCLKPEDTAVYDCAADVDAGRHYGYWGQGTQVTVSS
- polyreactivity (PSR sort gate): low polyreactivity

Sequence: QVQLVESGVGLVQARGSLRLSSASSGSILSTYAMGCYRQAPGKERELVASISSNAGSTYYADSVKGRFTISRDNAKNTVYLQMNSLKPEDTAVYYCNVKYKYYSPNYDYWGEGTQVTVSS
- polyreactivity (PSR sort gate): low polyreactivity

Sequence: QVQLVESGVGLVQAVGSLRLSCAASGIIFPYYPMGWYRQAPGKERELVAAISTGGSTYYADSVKGRFTISRDNAKNTVYLQMNSLKPEDTAVYFCAARVARYRSTKRYDYWGQGTQVSVSS
- polyreactivity (PSR sort gate): high polyreactivity

Sequence: QVQLVESGVGLVQAVGSLRLSCAASGRIFPAYVMGWYRQAPGKERELVATIDNGGGTYYADSVKGRFTISCDNAKYTVYLQMNSLKPEDTAVYYCARDRHVRWGLKRDYWGQGTQVTVSS
- polyreactivity (PSR sort gate): low polyreactivity

Sequence: QVQLVESGVGLYQAGGSLRLSCAASGSIFEENAMVWYRQAPGKEMELVAAITIGGRTNYADSVKGRFTISRDNAKNTVYLEMNSLKPEDTAVYYCASDLSSIKYWLFWTRYYYWGQGTQVNVSS
- polyreactivity (PSR sort gate): low polyreactivity

Sequence: QVQLVESGVRLVQAGGSLRLSCASSAITFGKNAMGWYRQAPGTESELVAAITRDGGTNYADSVKGRFTISRDNAMNTVYLHMNILKPEDTAVYYCAKRAYIYYGRYDYWGQGTQVTVSS
- polyreactivity (PSR sort gate): low polyreactivity
